Data set [1] deals with Full-length MMTV Gag polypeptide with a C-terminus hexa-histidine tag (Pr77^Gag-His6-tag protein) (mouse mammary tumor virus (MMTV)). Briefly: dynamic light scattering; Pr77^Gag in storage buffer (50 mM Tris-HCl pH 8.0, 1 M NaCl), 20°C; mean hydrodynamic radius based on number distribution.
Data set [2] concerns Pr77Gag (Gag precursor polyprotein) (Mouse mammary tumor virus (strain not stated; HYB-MTV?)). Briefly: EMSA. Conditions: competition, filter binding: 30 mM Tris pH 7.5, 300 mM NaCl, 5 mM MgCl2, DTT (10 mM in protein diluent), 0.01% Triton X-100, BSA, 37 C 30 min then ice ….

pKd: −log10 of the molar value.

Take “Full-length MMTV Gag polypeptide with a C-terminus hexa-histidine tag (Pr77^Gag-His6-tag protein) (natural protein)”: in data set [1], the stoichiometry N (commonly a count of units in the complex or per binding partner) was determined as 3. WT unspliced gRNA nt 1-712 (SA35): the pKd – broadly, the negative decadic logarithm of the Kd, by convention in mol/L – in data set [2] was 6.32.

The record behind these values is article PMC8096270.
